PMC6789141, “ZC3H18 specifically binds and activates the BRCA1 promoter to facilitate homologous recombination in ovarian cancer”

Molecular target: T1, SFB-ZC3H18 (human, UniProt Q86VM9 1-953)
T1 sequence: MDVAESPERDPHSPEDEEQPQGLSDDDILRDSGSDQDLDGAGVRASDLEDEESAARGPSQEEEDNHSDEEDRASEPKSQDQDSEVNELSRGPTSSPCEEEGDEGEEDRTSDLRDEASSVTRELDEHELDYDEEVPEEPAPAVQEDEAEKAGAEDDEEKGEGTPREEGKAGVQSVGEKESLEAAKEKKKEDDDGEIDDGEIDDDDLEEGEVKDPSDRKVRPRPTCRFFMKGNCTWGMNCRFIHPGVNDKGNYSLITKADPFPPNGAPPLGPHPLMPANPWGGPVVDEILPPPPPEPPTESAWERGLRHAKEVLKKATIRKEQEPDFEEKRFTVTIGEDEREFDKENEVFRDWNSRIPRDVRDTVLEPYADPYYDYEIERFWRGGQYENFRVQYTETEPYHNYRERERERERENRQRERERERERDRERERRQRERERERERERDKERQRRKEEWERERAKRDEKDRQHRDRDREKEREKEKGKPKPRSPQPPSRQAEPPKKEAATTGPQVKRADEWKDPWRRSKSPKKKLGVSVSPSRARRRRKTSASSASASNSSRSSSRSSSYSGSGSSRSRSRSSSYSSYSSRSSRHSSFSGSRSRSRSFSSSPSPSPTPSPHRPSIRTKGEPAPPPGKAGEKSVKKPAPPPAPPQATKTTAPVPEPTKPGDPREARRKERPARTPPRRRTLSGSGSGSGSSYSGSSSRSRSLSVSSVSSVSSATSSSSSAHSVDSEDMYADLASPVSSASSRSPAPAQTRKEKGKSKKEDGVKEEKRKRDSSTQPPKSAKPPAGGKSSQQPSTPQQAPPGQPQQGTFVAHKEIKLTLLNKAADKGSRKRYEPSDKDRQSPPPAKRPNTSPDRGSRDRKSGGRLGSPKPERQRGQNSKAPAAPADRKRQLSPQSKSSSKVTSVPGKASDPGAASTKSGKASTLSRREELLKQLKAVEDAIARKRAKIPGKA
Test: EMSA; cold competition and anti-S-tag supershift confirm; EMSA: 20 mM Tris-HCl pH 8.0, 50 mM NaCl, 1 mM MgCl2, 5 mg/ml BSA, 1 mM DTT, 20 min at room temperature; 5% native gel, 0.25x TBE, 4 °C
Conditions: protein: recombinant; C-terminal 6xHis; label: 32P 5' end; duplex of complementary 50-mers

B1: E2FA/BWT (dsDNA)
DNA 1: TAGCCCCTTGGTTTCCGTGGCAACGGAAAAGCGCGGGAATTACAGATAAA
DNA 2: TTTATCTGTAATTCCCGCGCTTTTCCGTTGCCACGGAAACCAAGGGGCTA
binding result: binds
